A word on the stoichiometry N: it is the number of molecules, sites or subunits per partner or assembly.

Here are results for 1 substance from publication PMC6745501, “Plant photoreceptors and their signaling components compete for COP1 binding via VP peptide motifs” (The EMBO Journal, 2019).

This experiment deals with UVR8^HY5C44 chimera (recombinant) (Arabidopsis). In words: SEC; purified recombinant chimeric UVR8 proteins alone, in the absence of UV-B. (Size exclusion chromatography separates by hydrodynamic size, large species first.)

Regarding UVR8^HY5C44 chimera (recombinant), the stoichiometry N is 2.
